The target of one series is YBX3 (Homo sapiens, UniProt P16989 1-372). In words: EMSA; EMSA: 1 fmol labeled RNA, 0.1-4 pmol protein, 5% native acrylamide gel; buffer, salt, pH, temperature not given (refers to Marnef et al. 2016). Conditions: protein: recombinant, tags: Strep-tag (N-terminal, in 5' primer), Ni-NTA purified, tRNA fold.
The target in the next series is YBX1 (Homo sapiens, UniProt P67809 1-324). The description is as above. Conditions: protein: recombinant, tags: Strep-tag (N-terminal, in 5' primer), Ni-NTA purified, tRNA fold.
Chain of YBX1 (P67809 whole entry): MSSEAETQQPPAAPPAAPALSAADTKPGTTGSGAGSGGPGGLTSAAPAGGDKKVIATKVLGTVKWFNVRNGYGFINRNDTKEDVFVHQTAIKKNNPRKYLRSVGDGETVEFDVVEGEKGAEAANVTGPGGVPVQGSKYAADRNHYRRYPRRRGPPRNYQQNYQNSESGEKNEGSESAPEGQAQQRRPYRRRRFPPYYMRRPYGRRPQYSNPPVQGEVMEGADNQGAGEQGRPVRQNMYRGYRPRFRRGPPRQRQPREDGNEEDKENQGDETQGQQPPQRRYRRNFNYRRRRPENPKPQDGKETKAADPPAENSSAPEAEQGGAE

Chain of YBX3 (P16989 whole entry): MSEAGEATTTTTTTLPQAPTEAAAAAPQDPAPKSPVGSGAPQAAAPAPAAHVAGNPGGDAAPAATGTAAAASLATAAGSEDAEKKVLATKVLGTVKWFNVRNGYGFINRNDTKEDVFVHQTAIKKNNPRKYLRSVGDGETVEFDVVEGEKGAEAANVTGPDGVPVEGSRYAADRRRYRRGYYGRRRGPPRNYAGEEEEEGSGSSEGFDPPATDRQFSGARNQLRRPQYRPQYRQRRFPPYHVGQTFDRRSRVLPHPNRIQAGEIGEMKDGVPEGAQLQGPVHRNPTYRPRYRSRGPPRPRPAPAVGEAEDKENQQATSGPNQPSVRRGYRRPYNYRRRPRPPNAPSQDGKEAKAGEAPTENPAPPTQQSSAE

B1: mt tRNALeu(UUR) (structured_RNA)
RNA: GUUAAGAUGGCAGAGCCCGGUAAUCGCAUAAAACUUAAAACUUUACAGUCAGAGGUUCAAUUCCUCUUCUUAACACCA
With B1, the binding result with YBX3 (label: internal 32P-CTP) and in the series with YBX1 (label: internal 32P-CTP) was “binds” each time.

B2: mt tRNAGly (structured_RNA)
RNA: ACUCUUUUAGUAUAAAUAGUACCGUUAACUUCCAAUUAACUAGUUUUGACAACAUUCAAAAAAGAGUACCA
With B2, the binding result with YBX3 and with YBX1 was “binds” each time.
